B1: Twister Ribozyme (parent)
chain: AACACUGCCAAUGCCGGUCCCAAGCCCGGAUAAAAGUGGAGGGGGCGG

Variants of: B1
Assay: self-cleavage, relative activity (ratio to wild type); higher = more cleavage; co-transcriptional
AACACUGCCAAUGCCGGUGCCAAGCCCGGAUAAAAGUGGUGGGGGCGG [C19G A40U] gave a self-cleavage of 0.0582.
Work on AACACUGCCAAUGCCGGUGCCAAGCCCGGACAAAAGUGGAGGGGGCGG [C19G U31C] yielded a self-cleavage of 0.492.
Work on AACACUGCCAAUGCCGGUGCCAAGCCCGGAGAAAAGUGGAGGGGGCGG [C19G U31G] yielded a self-cleavage of 0.467.
AACACUGCCAAUGCCGGUGCCAAGCCCGGAUAAAAGUGGAGGGGGCGU [C19G G48U] gave a self-cleavage of 0.218.
AACACUGCCAAUGCCGGUGCCAAGCCCGGAUAAAAGUGGAGGGGGCGC [C19G G48C] showed a self-cleavage of 0.23.
AACACUGCCAAUGCCGGUACCAAACCCGGAUAAAAGUGGAGGGGGCGG [C19A G24A] gave a self-cleavage of 0.0849.
AACACUGCCAAUGCCGGUACCAAUCCCGGAUAAAAGUGGAGGGGGCGG [C19A G24U] showed a self-cleavage of 0.0798.
With AACACUGCCAAUGCCGGUACCAAGCUCGGAUAAAAGUGGAGGGGGCGG [C19A C26U] the self-cleavage was 0.0877.
In the case of AACACUGCCAAUGCCGGUACCAAGCCCGGAUAAAAGUGGCGGGGGCGG [C19A A40C], the self-cleavage is reported as 0.148.
For AACACUGCCAAUGCCGGUACCAAGCCCGGAUAAAAGUGGUGGGGGCGG [C19A A40U], the self-cleavage was 0.16.
AACACUGCCAAUGCCGGUACCAAGCCCGGAGAAAAGUGGAGGGGGCGG [C19A U31G] gave a self-cleavage of 0.334.
In the case of AACACUGCCAAUGCCGGUGCCAAGUCCGGAUAAAAGUGGAGGGGGCGG [C19G C25U], the self-cleavage is reported as 0.151.
AACACUGCCAAUGCCGGUGCCAAGGCCGGAUAAAAGUGGAGGGGGCGG [C19G C25G] showed a self-cleavage of 0.124.
For AACACUGCCAAUGCCGGUGCCAAGCCCGGAUAAAAGUGGACGGGGCGG [C19G G41C], the self-cleavage was 0.136.
With AACACUGCCAAUGCCGGUGCCAAGCCCGGAUAAAAGUGGAAGGGGCGG [C19G G41A] the self-cleavage was 0.113.
Work on AACACUGCCAAUGCCGGUGCCAAGCCCGGAUAAAAGUGGAUGGGGCGG [C19G G41U] yielded a self-cleavage of 0.104.
Variant AACACUGCCAAUGCCGGUGCCAAGCCCGGAUAAAAGUGGAGAGGGCGG [C19G G42A] has a self-cleavage of 0.0847.
For AACACUGCCAAUGCCGGGCCCAAGCCCGGAUAAAAGCGGAGGGGGCGG [U18G U37C], the self-cleavage was 0.0884.
Work on AACACUGCCAAUGCCGGUGCCAAGCCCGGAUAAAAGUGGAGGGGGAGG [C19G C46A] yielded a self-cleavage of 0.18.
AACACUGCCAAUGCCGGUACCAAGCCCGGAUUAAAGUGGAGGGGGCGG [C19A A32U] gave a self-cleavage of 0.189.
With AACACUGCCAAUGCCGGUACCAAGCCCGGAUCAAAGUGGAGGGGGCGG [C19A A32C] the self-cleavage was 0.201.
Variant AACACUGCCAAUGCCGGUACCACGCCCGGAUAAAAGUGGAGGGGGCGG [C19A A23C] has a self-cleavage of 0.126.
For AACACUGCCAAUGCCGGUACCAAGCCCGGAUAAAAGUGGAGGGGGAGG [C19A C46A], the self-cleavage was 0.197.
AACACUGCCAAUGCCGGUACCAAGCCAGGAUAAAAGUGGAGGGGGCGG [C19A C27A] gave a self-cleavage of 0.0712.
With AACACUGCCAAUGCCGGUACCAAGCCGGGAUAAAAGUGGAGGGGGCGG [C19A C27G] the self-cleavage was 0.073.
Work on AACACUGCCAAUGCCGGUACCCAGCCCGGAUAAAAGUGGAGGGGGCGG [C19A A22C] yielded a self-cleavage of 0.127.
With AACACUGCCAAUGCCGGUACCUAGCCCGGAUAAAAGUGGAGGGGGCGG [C19A A22U] the self-cleavage was 0.11.
AACACUGCCAAUGCCGGUGCCGAGCCCGGAUAAAAGUGGAGGGGGCGG [C19G A22G] showed a self-cleavage of 0.0844.
Variant AACACUGCCAAUGCCGGUGCCAAGCCCGGAUAAAAGUGGAGGUGGCGG [C19G G43U] has a self-cleavage of 0.685.
AACACUGCCAAUGCCGGUGCCAACCCCGGAUAAAAGUGGAGGGGGCGG [C19G G24C] showed a self-cleavage of 0.125.
In the case of AACACUGCCAAUGCCGGUGCCAAACCCGGAUAAAAGUGGAGGGGGCGG [C19G G24A], the self-cleavage is reported as 0.0928.
AACACUGCCAAUGCCGGGCCCAAGCCCGGAUAAAAGUGGAGGCGGCGG [U18G G43C] showed a self-cleavage of 0.116.
Work on AACACUGCCAAUGCCGGGCCCAAGCCCGGAUAAAAGUGGAGGAGGCGG [U18G G43A] yielded a self-cleavage of 0.0708.
AACACUGCCAAUGCCGGUACCAAGCCCUGAUAAAAGUGGAGGGGGCGG [C19A G28U] showed a self-cleavage of 0.179.
AACACUGCCAAUGCCGGUGCCAAGCCCGGAUAAAAGUGGAGGGCGCGG [C19G G44C] showed a self-cleavage of 0.27.
Work on AACACUGCCAAUGCCGGUGCCAAGCCCGGAUAAAAGUGGAGGGUGCGG [C19G G44U] yielded a self-cleavage of 0.29.
Work on AACACUGCCAAUGCCGGUGCCAAGCCCGGAUAAAAGUAGAGGGGGCGG [C19G G38A] yielded a self-cleavage of 0.132.
In the case of AACACUGCCAAUGCCGGUGCUAAGCCCGGAUAAAAGUGGAGGGGGCGG [C19G C21U], the self-cleavage is reported as 0.101.
Work on AACACUGCCAAUGCCGGUGCAAAGCCCGGAUAAAAGUGGAGGGGGCGG [C19G C21A] yielded a self-cleavage of 0.0839.
Work on AACACUGCCAAUGCCGGUGCCAAGCCCGGAUAAAAGCGGAGGGGGCGG [C19G U37C] yielded a self-cleavage of 0.138.
With AACACUGCCAAUGCCGGUGCCAAGCCCGGAUAAAAGAGGAGGGGGCGG [C19G U37A] the self-cleavage was 0.0632.
In the case of AACACUGCCAAUGCCGGUGCCAGGCCCGGAUAAAAGUGGAGGGGGCGG [C19G A23G], the self-cleavage is reported as 0.0717.
AACACUGCCAAUGCCGGUGCCACGCCCGGAUAAAAGUGGAGGGGGCGG [C19G A23C] showed a self-cleavage of 0.0786.
With AACACUGCCAAUGCCGGUGCCAAGCCCGGAUAAAACUGGAGGGGGCGG [C19G G36C] the self-cleavage was 0.118.
Work on AACACUGCCAAUGCCGGUGCCAAGCCCGGAUAAAAAUGGAGGGGGCGG [C19G G36A] yielded a self-cleavage of 0.101.
Variant AACACUGCCAAUGCCGGGCCCAAGCCCGGAUAAAAGUGGAGGGUGCGG [U18G G44U] has a self-cleavage of 0.0806.
In the case of AACACUGCCAAUGCCGGGCCCAAGCCCGGAUAAAAGUGGAGGGCGCGG [U18G G44C], the self-cleavage is reported as 0.0756.
For AACACUGCCAAUGCCGGGCCCAAGCCCGGAUAAAAGUGGAGGGGGCUG [U18G G47U], the self-cleavage was 0.0478.
For AACACUGCCAAUGCCGGGCCCAAGCCCGGAUAAAAGUGGAGGGGGCAG [U18G G47A], the self-cleavage was 0.0493.
AACACUGCCAAUGCCGGUGCCAAGCCCGGAUACAAGUGGAGGGGGCGG [C19G A33C] gave a self-cleavage of 0.0963.
Work on AACACUGCCAAUGCCGGGCCCAAGCCCGGAUAAAAGUGGAGGGGGCGU [U18G G48U] yielded a self-cleavage of 0.117.
In the case of AACACUGCCAAUGCCGGUACCAAGCCCGGAUAAAAGUGGAGGGGGCCG [C19A G47C], the self-cleavage is reported as 0.155.
With AACACUGCCAAUGCCGGUACCAAGCCCGGAUAAAAGUGGAGGGGGCAG [C19A G47A] the self-cleavage was 0.139.
AACACUGCCAAUGCCGGUACCAAGCCCGGAUAAAGGUGGAGGGGGCGG [C19A A35G] showed a self-cleavage of 0.095.

Source: the RNAGym collection of RNA variant scans (doi:10.7554/elife.80360)
